Reference: patent publication US20240026011A1 (Takeda / Millennium, published 2024)

Molecular target: T1, EGFR (UniProt P00533 25-645, limits assumed)
T1 construct: also called target EGFR

B1: Pro90 (hEGFR1) (other)
VHH: EVQLVESGGGLVQPGGSLRLSCAASGRTFSSYAMGWFRQAPGKEREFVVAINWSSGSTYYADSVKGRFTISRDNSKNTLYLQMNSLRAEDTAVYYCAAGYQINSGNYNFKDYEYDYWGQGTLVTVSS
- Kd: 2 nM
- koff: 0.00044 s⁻¹
- kon: 221000 M⁻¹ s⁻¹
